# Reference: patent US20240191187A1, “MEDIA AND METHODS FOR GROWING MAMMARY ORGANOIDS” (STEMCELL TECHNOLOGIES CANADA INC., priority 2021, published 2024)
# Entries after “also recorded” stand apart in the source; their conditions may differ.
# B1: anti mullerian hormone (protein, UniProt P03971 452-560, looked up)
# Muellerian-inhibiting factor: SAGATAADGPCALRELSVDLRAERSVLIPETYQANNCQGVCGWPQSDRNPRYGNHVVLLLKMQVRGAALARPPCCVPTAYAGKLLISLSEERISAHHVPNMVATECGCR
# System: human mammary epithelial cells
# Assay: Human mammary organoids stained for K8/K14, confocal microscopy
# Type: cell-based
# Settings: Day 17 organoids; 50 ng/mL NRG3, 100 ng/mL AMH, 50 ng/mL GM-CSF
# Protocol: Organoids were recovered from Matrigel by incubating in Corning Cell Recovery Solution for 1 hour with rocking on ice. Organoids were then fixed in 4% paraformaldehyde (PFA) at room temperature for 1 hour and stored in PBS at 4° C. After PFA fixation, antigen retrieval was performed by boiling the organoids in sodium citrate buffer for 20 minutes at 96° C. Organoids were permeabilized in a 0.5% Triton-X-100 solution in PBS overnight at room temperature. Samples were blocked by incubating overnight in a solution of 5% goat serum.
# Following fixation and permeabilization, the organoids were incubated sequentially in primary antibody and secondary antibody solutions (as summarized in the table below) overnight at room temperature. Samples were counterstained in a 2 μg/ml DAPI solution for 20 minutes and dehydrated through stepwise incubations in solutions with increasing methanol concentrations (50%, 80%, then 100% methanol). Organoids were embedded in a solution of 2:1 Benzyl Benzoate-Benzyl alcohol (BABB), transferred to Ibidi glass bottom chamber slides and imaged using a Leica SP8 confocal laser scanning microscope. […]
# The effects of modulating signaling through BMP were analyzed across multiple experiments in terms of total cell count among formed organoids (FIG. 9A) and the lineage balance of the cells among formed organoids (FIG. 9B). […]
molecule,measurement,value
B1,lineage restriction of organoids formed (K8/K14 staining),bias the culture of mammary epithelial cells to form luminal-restricted organoids; also recorded: Luminal-restricted organoids were formed
